# T1: SP34-binding peptide 15860
# T1 peptide: VYYCGGNESLCGERR
# T2: SP34-binding peptide 15864
# T2 peptide: FMCQQRMWGNEFCHQ
# T3: SP34-binding peptide 15286
# T3 peptide: GYSGGCEFRCYQLYS
# T4: SP34-binding peptide 14995
# T4 peptide: YSLWGCEWGCDRGLY
# T5: SP34-binding peptide 15865
# T5 peptide: MMYCGGNEVLCGPRV
# T6: SP34-binding peptide 15263
# T6 peptide: WYSGGCEAFCGILSS
# T7: SP34-binding peptide 15003
# T7 peptide: GYRWGCEWNCGGITT
# Key:
# [1] = molecular target: T1, SP34-binding peptide 15860; experiment: flow cytometry on peptide-displaying E. coli, 1 nM SP34-dylight-488 with 100 nM isotype control, normalised to peptide expression (yPet-Mona)
# [2] = molecular target: T2, SP34-binding peptide 15864; experiment: as above
# [3] = molecular target: T3, SP34-binding peptide 15286; experiment: as above
# [4] = molecular target: T4, SP34-binding peptide 14995; experiment: as above
# [5] = molecular target: T5, SP34-binding peptide 15865; experiment: as above
# [6] = molecular target: T6, SP34-binding peptide 15263; experiment: as above
# [7] = molecular target: T7, SP34-binding peptide 15003; experiment: as above
# [8] = molecular target: T1, SP34-binding peptide 15860; experiment: flow cytometry on peptide-displaying E. coli, 0.1 nM SP34-dylight-488 with 100 nM isotype control, normalised to peptide expression (yPet-Mona)
# [9] = molecular target: T2, SP34-binding peptide 15864; experiment: as above
# [10] = molecular target: T3, SP34-binding peptide 15286; experiment: as above
# [11] = molecular target: T4, SP34-binding peptide 14995; experiment: as above
# [12] = molecular target: T5, SP34-binding peptide 15865; experiment: as above
# [13] = molecular target: T6, SP34-binding peptide 15263; experiment: as above
# [14] = molecular target: T7, SP34-binding peptide 15003; experiment: as above
# [15] = molecular target: T1, SP34-binding peptide 15860; experiment: flow cytometry on peptide-displaying E. coli, 100 nM SP34-dylight-488 with 100 nM isotype control, normalised to peptide expression (yPet-Mona)
# [16] = molecular target: T2, SP34-binding peptide 15864; experiment: as above
# [17] = molecular target: T3, SP34-binding peptide 15286; experiment: as above
# [18] = molecular target: T4, SP34-binding peptide 14995; experiment: as above
# [19] = molecular target: T5, SP34-binding peptide 15865; experiment: as above
# [20] = molecular target: T6, SP34-binding peptide 15263; experiment: as above
# [21] = molecular target: T7, SP34-binding peptide 15003; experiment: as above
# [22] = molecular target: T1, SP34-binding peptide 15860; experiment: flow cytometry on peptide-displaying E. coli, 10 nM SP34-dylight-488 with 100 nM isotype control, normalised to peptide expression (yPet-Mona)
# [23] = molecular target: T2, SP34-binding peptide 15864; experiment: as above
# [24] = molecular target: T3, SP34-binding peptide 15286; experiment: as above
# [25] = molecular target: T4, SP34-binding peptide 14995; experiment: as above
# [26] = molecular target: T5, SP34-binding peptide 15865; experiment: as above
# [27] = molecular target: T6, SP34-binding peptide 15263; experiment: as above
# [28] = molecular target: T7, SP34-binding peptide 15003; experiment: as above
# [29] = molecular target: T1, SP34-binding peptide 15860; experiment: flow cytometry on peptide-displaying E. coli, 1 nM SP34-dylight-488 with 100 nM free human CD3ε as competitor, normalised to peptide expression (yPet-Mona)
# [30] = molecular target: T2, SP34-binding peptide 15864; experiment: as above
# [31] = molecular target: T3, SP34-binding peptide 15286; experiment: as above
# [32] = molecular target: T4, SP34-binding peptide 14995; experiment: as above
# [33] = molecular target: T5, SP34-binding peptide 15865; experiment: as above
# [34] = molecular target: T6, SP34-binding peptide 15263; experiment: as above
# [35] = molecular target: T7, SP34-binding peptide 15003; experiment: as above
binder,measurement,setting,value
"Anti-CD3ε antibody SP34 (antibody, V domains shown, Bought mouse monoclonal (BD Biosciences Cat# 556610); also called SP34 antibody) VH: EVQLVESGGGLVQPKGSLKLSCAASGFTFNTYAMNWVRQAPGKGLEWVARIRSKYNNYATYYADSVKDRFTISRDDSQSILYLQMNNLKTEDTAMYYCVRHGNFGNSYVSWFAYWGQGTLVTVSA VL: QAVVTQESALTTSPGETVTLTCRSSTGAVTTSNYANWVQEKPDHLFTGLIGGTNKRAPGVPARFSGSLIGDKAALTITGAQTEDEAIYFCALWYSNLWVFGGGTKLTVL",expression normalized binding,[1],0.52
same,expression normalized binding,[2],0.36
same,expression normalized binding,[3],0.42
same,expression normalized binding,[4],0.13
same,expression normalized binding,[5],0.79
same,expression normalized binding,[6],0.35
same,expression normalized binding,[7],0.2
same,expression normalized binding,[8],0.48
same,expression normalized binding,[9],0.15
same,expression normalized binding,[10],0.28
same,expression normalized binding,[11],0.08
same,expression normalized binding,[12],0.21
same,expression normalized binding,[13],0.24
same,expression normalized binding,[14],0.11
same,expression normalized binding,[15],4.55
same,expression normalized binding,[16],1.88
same,expression normalized binding,[17],1.72
same,expression normalized binding,[18],0.51
same,expression normalized binding,[19],2.24
same,expression normalized binding,[20],2.28
same,expression normalized binding,[21],0.69
same,expression normalized binding,[22],1.72
same,expression normalized binding,[23],0.63
same,expression normalized binding,[24],0.66
same,expression normalized binding,[25],0.11
same,expression normalized binding,[26],1.08
same,expression normalized binding,[27],0.69
same,expression normalized binding,[28],0.39
same,expression normalized binding,[29],0.51
same,expression normalized binding,[30],0.3
same,expression normalized binding,[31],0.34
same,expression normalized binding,[32],0.08
same,expression normalized binding,[33],0.26
same,expression normalized binding,[34],0.34
same,expression normalized binding,[35],0.12

# — patent publication US20160194399A1 (CYTOMX THERAPEUTICS, published 2016)
